Measured values taken from paper PMC7355856 (2020).

Experiments:
α-synuclein [1] = target: T1, α-synuclein (human, UniProt P37840 1-140); assay: SPR
α-synuclein [2] = target: T1, α-synuclein; assay: SPR; remark: listed apart in the source

B1: prolyl oligopeptidase (POP) (enzyme)
chain: MLSLQYPDVYRDETAVQDYHGHKICDPYAWLEDPDSEQTKAFVEAQNKITVPFLEQCPIRGLYKERMTELYDYPKYSCHFKKGKRYFYFYNTGLQNQRVLYVQDSLEGEARVFLDPNILSDDGTVALRGYAFSEDGEYFAYGLSASGSDWVTIKFMKVDGAKELPDVLERVKFSCMAWTHDGKGMFYNSYPQQDGKSDGTETSTNLHQKLYYHVLGTDQSEDILCAEFPDEPKWMGGAELSDDGRYVLLSIREGCDPVNRLWYCDLQQESSGIAGILKWVKLIDNFEGEYDYVTNEGTVFTFKTNRQSPNYRVINIDFRDPEESKWKVLVPEHEKDVLEWIACVRSNFLVLCYLHDVKNILQLHDLTTGALLKTFPLDVGSIVGYSGQKKDTEIFYQFTSFLSPGIIYHCDLTKEELEPRVFREVTVKGIDASDYQTVQIFYPSKDGTKIPMFIVHKKGIKLDGSHPAFLYGYGGFNISITPNYSVSRLIFVRHMGGILAVANIRGGGEYGETWHKGGILANKQNCFDDFQCAAEYLIKEGYTSPKRLTINGGSNGGLLVAACANQRPDLFGCVIAQVGVMDMLKFHKYTIGHAWTTDYGCSDSKQHFEWLVKYSPLHNVKLPEADDIQYPSMLLLTADHDDRVVPLHSLKFIATLQYIVGRSRKQSNPLLIHVDTKAGHGAGKPTAKVIEEVSDMFAFIARCLNVDWIP
Q: B1 was tested. Which koff (α-synuclein [1]) did it give?
A: Its koff is 0.00118 s⁻¹.

Q: And the Kd (α-synuclein [2])?
A: Its Kd is 5.32 nM.
